B1: Dynamin-1 (Homo sapiens), Q05193 (parent)
chain: MGNRGMEDLIPLVNRLQDAFSAIGQNADLDLPQIAVVGGQSAGKSSVLENFVGRDFLPRGSGIVTRRPLVLQLVNATTEYAEFLHCKGKKFTDFEEVRLEIEAETDRVTGTNKGISPVPINLRVYSPHVLNLTLVDLPGMTKVPVGDQPPDIEFQIRDMLMQFVTKENCLILAVSPANSDLANSDALKVAKEVDPQGQRTIGVITKLDLMDEGTDARDVLENKLLPLRRGYIGVVNRSQKDIDGKKDITAALAAERKFFLSHPSYRHLADRMGTPYLQKVLNQQLTNHIRDTLPGLRNKLQSQLLSIEKEVEEYKNFRPDDPARKTKALLQMVQQFAVDFEKRIEGSGDQIDTYELSGGARINRIFHERFPFELVKMEFDEKELRREISYAIKNIHGIRTGLFTPDMAFETIVKKQVKKIREPCLKCVDMVISELISTVRQCTKKLQQYPRLREEMERIVTTHIREREGRTKEQVMLLIDIELAYMNTNHEDFIGFANAQQRSNQMNKKKTSGNQDEILVIRKGWLTINNIGIMKGGSKEYWFVLTAENLSWYKDDEEKEKKYMLSVDNLKLRDVEKGFMSSKHIFALFNTEQRNVYKDYRQLELACETQEEVDSWKASFLRAGVYPERVGDKEKASETEENGSDSFMHSMDPQLERQVETIRNLVDSYMAIVNKTVRDLMPKTIMHLMINNTKEFIFSELLANLYSCGDQNTLMEESAEQAQRRDEMLRMYHALKEALSIIGDINTTTVSTPMPPPVDDSWLQVQSVPAGRRSPTSSPTPQRRAPAVPPARPGSRGPAPGPPPAGSALGGAPPVPSRPGASPDPFGPPPQVPSRPNRAPPGVPSRSGQASPSRPESPRPPFDL
partner: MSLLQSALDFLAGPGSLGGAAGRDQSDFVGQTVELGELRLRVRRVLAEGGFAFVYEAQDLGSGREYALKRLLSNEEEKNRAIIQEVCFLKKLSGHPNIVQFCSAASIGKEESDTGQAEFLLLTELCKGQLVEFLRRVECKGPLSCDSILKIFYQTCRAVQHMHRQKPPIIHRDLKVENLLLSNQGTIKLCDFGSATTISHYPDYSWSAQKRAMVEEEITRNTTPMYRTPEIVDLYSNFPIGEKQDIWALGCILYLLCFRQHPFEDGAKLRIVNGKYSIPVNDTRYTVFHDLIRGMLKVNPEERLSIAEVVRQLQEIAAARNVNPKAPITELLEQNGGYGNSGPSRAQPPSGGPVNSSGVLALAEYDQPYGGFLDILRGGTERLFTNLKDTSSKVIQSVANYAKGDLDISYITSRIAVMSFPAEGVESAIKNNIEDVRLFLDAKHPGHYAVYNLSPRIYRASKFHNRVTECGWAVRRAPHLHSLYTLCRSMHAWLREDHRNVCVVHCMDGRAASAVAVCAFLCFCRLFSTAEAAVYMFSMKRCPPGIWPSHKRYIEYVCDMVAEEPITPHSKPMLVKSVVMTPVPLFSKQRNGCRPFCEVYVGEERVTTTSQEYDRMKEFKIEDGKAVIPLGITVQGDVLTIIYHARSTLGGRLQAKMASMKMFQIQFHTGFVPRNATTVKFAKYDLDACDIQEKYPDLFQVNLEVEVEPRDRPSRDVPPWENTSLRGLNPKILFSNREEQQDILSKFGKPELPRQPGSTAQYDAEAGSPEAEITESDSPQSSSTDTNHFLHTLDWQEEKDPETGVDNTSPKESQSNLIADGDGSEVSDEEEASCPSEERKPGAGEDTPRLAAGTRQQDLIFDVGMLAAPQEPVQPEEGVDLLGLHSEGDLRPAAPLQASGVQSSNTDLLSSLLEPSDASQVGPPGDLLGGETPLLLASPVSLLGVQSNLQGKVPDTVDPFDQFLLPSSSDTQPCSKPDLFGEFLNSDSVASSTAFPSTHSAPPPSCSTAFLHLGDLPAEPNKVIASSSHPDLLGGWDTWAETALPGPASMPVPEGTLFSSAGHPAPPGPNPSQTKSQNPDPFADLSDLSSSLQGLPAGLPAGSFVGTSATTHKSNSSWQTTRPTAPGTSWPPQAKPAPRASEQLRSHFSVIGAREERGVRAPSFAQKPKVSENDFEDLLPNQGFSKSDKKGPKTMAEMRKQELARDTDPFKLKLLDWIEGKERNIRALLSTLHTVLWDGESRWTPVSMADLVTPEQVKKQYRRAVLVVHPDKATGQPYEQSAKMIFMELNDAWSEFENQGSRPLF

The variants in this assay derive from B1. Conditions: with gak_rat Gak.
Regarding K694A, the “effect of a mutation on the interaction” value is “increasing interaction”.

As to I690K, the “effect of a mutation on the interaction” value is “disrupting interaction”.

These data come from IntAct's records for PubMed 16946707.
